Binding result, koff and Kd data for two molecules are collected here from publication PMC10412584, “Molecular reshaping of phage-displayed Interleukin-2 at beta chain receptor interface to obtain potent super-agonists with improved developability profiles” (Communications Biology, 2023).

In general, koff refers to the rate constant with which the complex falls apart. For orientation: Kd means the equilibrium constant for the complex coming apart.

Where two headings read alike, the source gives them in different places.

In experiment [1] the target is T1, human IL-2 receptor beta chain extracellular domain (ECD) (human, UniProt P14784 27-240).
T1 construct: human IL-2 receptor beta subunit (CD122), recombinant extracellular domain; Coated on immunotubes for panning and on plates for phage ELISA; also called hIL-2R beta subunit ECD; beta chain ECD; source: bought: R&D Systems
T1 sequence (looked up): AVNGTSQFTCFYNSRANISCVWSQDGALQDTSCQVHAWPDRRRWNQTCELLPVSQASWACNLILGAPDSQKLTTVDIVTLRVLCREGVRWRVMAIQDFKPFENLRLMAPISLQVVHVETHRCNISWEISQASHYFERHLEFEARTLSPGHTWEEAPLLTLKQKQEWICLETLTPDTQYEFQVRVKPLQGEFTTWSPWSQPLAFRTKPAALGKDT
The experiment in a line: ELISA; polyvinyl chloride plates coated with human beta chain ECD; purified phage preparations of individual clones; bound phages detected with anti-M13-HRP; relative reactivity = signal on beta chain / signal on 9E10 (anti-c-myc). As to conditions: both partners purified. For orientation: ELISA stands for enzyme-linked immunosorbent assay.

Experiment [2] has as its target T2, 80FDPHDVVE87 + I92L + V93L(K35E)/Fc (human, UniProt P60568 21-153, K35E | L80F | R81D | R83H (from the name 80FDPHDVVE87) | L85V | I86V | S87E | …). In words: SPR. (Surface plasmon resonance follows binding to a sensor surface in real time, without labels.)
In experiment [3] the target is T3, H9(K35E)/Fc (human, UniProt P60568 21-153, K35E | L80F | R81D | L85V | I86V | I92F). The experiment in a line: SPR.
Experiment [4] has as its target T4, 80FDPADVVE87 + I92L(K35E)/Fc (human, UniProt P60568 21-153, K35E | L80F | R81D | R83 was replaced by either Ala or Glu (here Ala) | L85V | …). In words: SPR.
The target in experiment [5] is T5, 80FDPEDVVE87 + I92L(K35E)/Fc (human, UniProt P60568 21-153, K35E | L80F | R81D | R83 was replaced by either Ala or Glu (here Glu) | L85V | …). The experiment in a line: SPR.
Experiment [6] has as its target T6, IL-2(K35E)/Fc (human, UniProt P60568 21-153, K35E). In words: SPR.
In experiment [7] the target is T7, 80VPPEDLIE87 + I92L(K35E)/Fc (human, UniProt P60568 21-153, K35E | L80V (from the name 80VPPEDLIE87) | R81P (from the name 80VPPEDLIE87) | …). The experiment in a line: SPR.
The target in experiment [8] is T8, 80VPPEDLIA87 + I92L(K35E)/Fc (human, UniProt P60568 21-153, K35E | L80V (from the name 80VPPEDLIA87) | R81P (from the name 80VPPEDLIA87) | …). In words: SPR.
The target in experiment [9] is T9, fusion protein containing I92L-hIL-2 (K35E, human IgG1 Fc) (human, UniProt P60568 21-153, K35E | I92L). The experiment in a line: SPR.
Experiment [10] addresses T3, H9(K35E)/Fc. In words: SPR. This is another data set of the same source.
Experiment [11] has as its target T10, H9(K35E)/Fc in which F92 was replaced by the phage-selected Leu (human, UniProt P60568 21-153, K35E | L80F | R81D | L85V | I86V | I92L). The experiment in a line: SPR.
The target in experiment [12] is T6, IL-2(K35E)/Fc. The experiment in a line: SPR. The source holds these as a separate data set.
Experiment [13] deals with T11, H9(K35E)/Fc in which F92 was replaced by the original Ile (human, UniProt P60568 21-153, K35E | L80F | R81D | L85V | I86V). The experiment in a line: SPR.
Experiment [14] deals with T2, 80FDPHDVVE87 + I92L + V93L(K35E)/Fc. In words: SPR. This is another data set of the same source.
In experiment [15] the target is T3, H9(K35E)/Fc. The experiment in a line: SPR. This is another data set of the same source.
The target in experiment [16] is T4, 80FDPADVVE87 + I92L(K35E)/Fc. In words: SPR. The source holds these as a separate data set.
Experiment [17] addresses T5, 80FDPEDVVE87 + I92L(K35E)/Fc. In words: SPR. The source holds these as a separate data set.
Experiment [18] concerns the target T6, IL-2(K35E)/Fc. In words: SPR. This is another data set of the same source.
The target of experiment [19] is T7, 80VPPEDLIE87 + I92L(K35E)/Fc. The experiment in a line: SPR. The source holds these as a separate data set.
For experiment [20], the target named is T8, 80VPPEDLIA87 + I92L(K35E)/Fc. The experiment in a line: SPR. This is another data set of the same source.
The target of experiment [21] is T9, fusion protein containing I92L-hIL-2 …. In words: SPR. The source holds these as a separate data set.
In experiment [22] the target is T3, H9(K35E)/Fc. The experiment in a line: SPR. The source holds these as a separate data set.
Experiment [23] has as its target T10, H9(K35E)/Fc in which F92 was replaced …. The experiment in a line: SPR. This is another data set of the same source.
Experiment [24] addresses T6, IL-2(K35E)/Fc. In words: SPR. The source holds these as a separate data set.
Experiment [25] has as its target T11, H9(K35E)/Fc in which F92 was replaced …. In words: SPR. This is another data set of the same source.

B1: phage-displayed hIL-2 variant 2B (S2 library) (ligand, human, UniProt P60568 23-153, looked up)
chain: TSSSTKKTQLQLEHLLLDLQMILNGINNYKNPKLTRMLTFKFYMPKKATELKHLQCLEEELKPLEEVLNLAQSKNFHVPPEDLIANINVLVLELKGSETTFMCEYADETATIVEFLNRWITFCQSIISTLT
notes: No K35E on the phage
As to B1, the binding result in experiment [1] is “binds”.

B2: recombinant fusion protein comprising human IL-2R beta subunit extracellular domain and mouse IgG2a Fc (Fc fusion)
chain: AVNGTSQFTCFYNSRANISCVWSQDGALQDTSCQVHAWPDRRRWNQTCELLPVSQASWACNLILGAPDSQKLTTVDIVTLRVLCREGVRWRVMAIQDFKPFENLRLMAPISLQVVHVETHRCNISWEISQASHYFERHLEFEARTLSPGHTWEEAPLLTLKQKQEWICLETLTPDTQYEFQVRVKPLQGEFTTWSPWSQPLAFRTKPAALGKDT
Consider B2, for which the koff in [2] was determined as 0.000266 s⁻¹; in the experiment with H9(K35E)/Fc [3], 0.000395 s⁻¹; in [4] it was 0.000461 s⁻¹; in experiment [5] it was 0.000273 s⁻¹; with IL-2(K35E)/Fc [6], 0.00326 s⁻¹; in experiment [7], 0.000304 s⁻¹. The off-rate (koff) in experiment [8] came out at 0.000349 s⁻¹; in [9], 0.00113 s⁻¹; with H9(K35E)/Fc [10] it was 0.000218 s⁻¹; in experiment [11], 0.000298 s⁻¹; with IL-2(K35E)/Fc [12], 0.00308 s⁻¹; in experiment [13], 0.000251 s⁻¹. In addition, the equilibrium dissociation constant (Kd) amounted to 1.12 nM in [14]; 4.09 nM with H9(K35E)/Fc [15]; 0.54 nM in experiment [16]; 0.29 nM in experiment [17]; 106 nM with IL-2(K35E)/Fc [18]; 0.37 nM in experiment [19]. Also, the Kd in [20] turned out to be 0.8 nM; in experiment [21], 36.5 nM; with H9(K35E)/Fc [22], 4.47 nM; in experiment [23], 3.35 nM; in the experiment with IL-2(K35E)/Fc [24] it was 103 nM; in experiment [25], 3.84 nM.
